Assay results taken from patent US9169496B2, “Method for the enzymatic production of butadiene” (Scientist of Fortune, S.A., priority 2011, dated 2015).

Key:
[1] = substrate: C/C=C/COP(=O)(O)O; assay: Kinetic parameters of the crotyl monophosphate phosphorylation reaction (pyruvate kinase/lactate dehydrogenase coupled spectrophotometric assay); format: biochemical, Methanothermobacter thermautotrophicus; details: other: trans crotyl monophosphate as a substrate; assay of Example 2; pH 7.5; 37.0 °C
Protocol: (§1) The release of ADP that is associated with crotyl alcohol phosphorylation was quantified using the pyruvate kinase/lactate dehydrogenase coupled assay (FIG. 5). The purified 4-methyl-5-(2-hydroxyethyl)thiazole kinases from Escherichia coli (SEQ ID NO:2), Bacillus subtilis (SEQ ID NO:1), Rhizobium leguminosarum (SEQ ID NO:3) were evaluated for their ability to phosphorylate crotyl alcohol releasing ADP. The studied enzymatic reaction was carried out under the following conditions at 37° C.: • 50 mM Tris-HCl pH 7.5 • 10 mM MgCl2 • 100 mM KCl • 5 mM ATP • 0.4 mM NADH • 1 mM Phosphoenolpyruvate • 3 U/ml Lactate dehydrogenase • 1.5 U/ml Pyruvate kinase • 50 mM crotyl alcohol, mixture cis and trans • The pH was adjusted to 7.5
(§2) Each assay was started by addition of a particular enzyme at a concentration 0.05 mg/ml and the disappearance of NADH was monitored by following the absorbance at 340 nm.
(§3) Sequences of isopentenyl monophosphate kinases inferred from the genomes of several members of the Archaea, in particular Methanothermobacter (SEQ ID NO:5), Methanocaldococcus (SEQ ID NO:6) and Thermoplasma (SEQ ID NO:4) genus, are generated by oligonucleotide concatenation to fit the codon usage of E. coli. […] The genes thus synthesized are cloned in a pET25b expression vector and the proteins are produced according to the protocol described in Example 1. The enzymes are then assayed using the method described in Example 2 with crotyl monophosphate concentrations varying from 0 to 50 mM. The release of ADP that is associated with crotyl monophosphate phosphorylation is quantified using the pyruvate kinase/lactate dehydrogenase coupled assay. Each assay is started by addition of particular enzyme (at a final concentration from 0.05 mg/ml to 1 mg/ml) and the disappearance of NADH is monitored by following the absorbance at 340 nm.
(§4) Cis crotyl monophosphate and trans crotyl monophosphate were synthesized upon request by a company specialized in custom synthesis (Syntheval, France). Kinetic parameters for the phosphorylation of these substrates were determined using the spectrophotometric assay described in Example 2. Kinetic parameters obtained with purified isopentenyl monophosphate kinases from different members of the Archaea kingdom are presented in Table 3 (cis crotyl monophosphate as a substrate) and Table 4 (trans crotyl monophosphate as a substrate).

[2] = substrate: C/C=C\COP(=O)(O)O; assay: as above; format: biochemical, Methanothermobacter thermautotrophicus; details: other: cis crotyl monophosphate as a substrate; assay of Example 2; pH 7.5; 37.0 °C
Protocol: as §1, §2, §3, §4

[3] = substrate: C/C=C/COP(=O)(O)O; assay: as above; format: biochemical, Methanocaldococcus jannaschii; details: other: trans crotyl monophosphate as a substrate; assay of Example 2; pH 7.5; 37.0 °C
Protocol: as §1, §2, §3, §4

[4] = substrate: C/C=C\COP(=O)(O)O; assay: as above; format: biochemical, Methanocaldococcus jannaschii; details: other: cis crotyl monophosphate as a substrate; assay of Example 2; pH 7.5; 37.0 °C
Protocol: as §1, §2, §3, §4

[5] = substrate: C/C=C/C(=O)SCCNC(=O)CCNC(=O)[C@H](O)C(C)(C)COP(=O)(O)OP(=O)(O)OC[C@H]1O[C@@H](n2cnc3c(N)ncnc32)[C@H](O)[C@@H]1OP(=O)(O)O; assay: Kinetic parameters towards crotonyl-CoA, overall reaction (crotyl alcohol quantification by HPLC); format: biochemical, Hahella chejuensis; details: other: NADPH fixed at 80 mM, crotonyl-CoA 0 to 32 mM, pH 7.5, 37° C.
Protocol: The reactions were initiated by addition of 150 μg of purified dehydrogenase/reductase to 150 μl of reaction mixture. Assays were incubated at 37° C. for 0.5-6 h. The reactions were stopped by heating at 65° C. for 5 minutes, reaction mixtures were centrifuged and 120 μl of the clarified supernatant were transferred into a clean vial. The reaction products were then extracted with an equal volume of ethyl acetate. 100 μl of the upper ethyl acetate phase was transferred into a clean vial for HPLC analysis. Commercial crotonaldehyde and crotyl alcohol were used as reference. HPLC-UV analysis was performed using a 1260 Inifinity LC System (Agilent). 10 μl of samples were separated on Zorbax SB-Aq column (250×4.6 mm, 3.5 μm particle size) with a mobile phase flow rate of 1.5 ml/min. The mobile phase consisted of 95:5 (v/v) H2O/Acetonitrile containing 8.4 mM sulfuric acid.
Kinetic parameters for the overall reaction were determined by crotyl alcohol quantification using HPLC procedure described in Example 17.

[6] = substrate: NC(=O)C1=CN([C@@H]2O[C@H](COP(=O)(O)OP(=O)(O)OC[C@H]3O[C@@H](n4cnc5c(N)ncnc54)[C@H](OP(=O)(O)O)[C@@H]3O)[C@@H](O)[C@H]2O)C=CC1; assay: purified protein, by the assay type; details: other: crotonyl-CoA fixed at 5 mM, NADPH 0 to 0.8 mM, pH 7.5, 37° C.
[7] = substrate: C/C=C/CO; assay: Kinetic parameters of crotyl alcohol phosphorylation (pyruvate kinase/lactate dehydrogenase coupled spectrophotometric assay); format: biochemical, Escherichia coli; details: other: crotyl alcohol phosphorylation, pH 7.5, 37° C., 5 mM ATP
Protocol: as §1, §2
(§5) Kinetic parameters of crotyl alcohol phosphorylation were determined using the spectrophotometric assay described in Example 2.

[8] = substrate: C/C=C\CO; assay: as above; format: biochemical, Escherichia coli; details: other: crotyl alcohol phosphorylation, pH 7.5, 37° C., 5 mM ATP
Protocol: as §1, §2, §5

[9] = substrate: C/C=C/COP(=O)(O)OP(=O)(O)O; assay: Kinetic parameters of enzyme catalyzed production of 1,3-butadiene from trans crotyl diphosphate (GC/FID); format: biochemical, Eucalyptus globulus; details: other: 0-25 mM trans crotyl diphosphate, pH 7.5, 37° C., 20 mM MgCl2, 20 mM KCl, 0.5-4 h
Protocol: (§6) One ml of the gaseous phase was then collected and directly injected into a Varian GC-430 gas chromatograph equipped with a flame ionization detector (FID). Nitrogen was used as carrier gas with a flow rate of 1.5 ml/min. Volatile compounds were chromatographically separated on RT-Alumina Bond/Na2SO4 column (Restek) using an isothermal mode at 130° C. The enzymatic reaction product was identified by direct comparison with 1,3-butadiene standard (Sigma).
The kinetic parameters of enzyme catalyzed production of 1,3-butadiene from trans crotyl […] were measured under the following conditions: • 50 mM Tris-HCl pH 7.5 • 20 mM MgCl2 • 20 mM KCl • 2 mM DTT • 0-25 mM trans crotyl diphosphate
(§7) The reaction was initiated by addition of 0.25 mg of purified monoterpene synthase from Eucalyptus globulus to 0.5 ml of reaction mixture. An enzyme-free control reaction was carried out in parallel. Assays were incubated at 37° C. for 0.5-4 h in a sealed vial of 1.5 ml (Interchim) with shaking.
(§8) 1,3-butadiene production was analyzed using the GC/FID procedure described in Example 12.

[10] = substrate: C/C=C/COP(=O)(O)O; assay: Kinetic parameters of enzyme catalyzed production of 1,3-butadiene from trans crotyl monophosphate (GC/FID); format: biochemical, Eucalyptus globulus; details: other: 0-25 mM trans crotyl monophosphate, pH 7.5, 37° C., 20 mM MgCl2, 20 mM KCl, 0.5-4 h
Protocol: as §6
The kinetic parameters of enzyme catalyzed production of 1,3-butadiene from trans crotyl monophosphate were measured under the following conditions: • 50 mM Tris-HCl pH 7.5 • 20 mM MgCl2 • 20 mM KCl • 2 mM DTT • 0-25 mM trans crotyl monophosphate
as §7, §8

[11] = substrate: C/C=C/COP(=O)(O)O; assay: Kinetic parameters of the crotyl monophosphate phosphorylation reaction (pyruvate kinase/lactate dehydrogenase coupled spectrophotometric assay); format: biochemical, Thermoplasma acidophilum; details: other: trans crotyl monophosphate as a substrate; assay of Example 2; pH 7.5; 37.0 °C
Protocol: as §1, §2, §3, §4

[12] = substrate: C/C=C\COP(=O)(O)O; assay: as above; format: biochemical, Thermoplasma acidophilum; details: other: cis crotyl monophosphate as a substrate; assay of Example 2; pH 7.5; 37.0 °C
Protocol: as §1, §2, §3, §4

B1: isopentenyl monophosphate kinase from Methanothermobacter thermautotrophicus, SEQ ID NO:5 (Methanothermobacter thermautotrophicus str. Delta H) (protein)
chain: MIILKLGGSVITRKDSEEPAIDRDNLERIASEIGNASPSSLMIVHGAGSFGHPFAGEYRIGSEIENEEDLRRRRFGFALTQNWVKKLNSHVCDALLAEGIPAVSMQPSAFIRAHAGRISHADISLIRSYLEEGMVPVVYGDVVLDSDRRLKFSVISGDQLINHFSLRLMPERVILGTDVDGVYTRNPKKHPDARLLDVIGSLDDLESLDGTLNTDVTGGMVGKIRELLLLAEKGVESEIINAAVPGNIERALLGEEVRGTRITGKH
Km [1]: 450 µM
kcat [1]: 8.7 s⁻¹
Km [2]: 940 µM
kcat [2]: 5.7 s⁻¹

B2: isopentenyl monophosphate kinase from Methanocaldococcus jannaschii, SEQ ID NO:6 (Methanocaldococcus jannaschii DSM 2661) (protein)
chain: MLTILKLGGSILSDKNVPYSIKWDNLERIAMEIKNALDYYKNQNKEIKLILVHGGGAFGHPVAKKYLKIEDGKKIFINMEKGFWEIQRAMRRFNNIIIDTLQSYDIPAVSIQPSSFVVFGDKLIFDTSAIKEMLKRNLVPVIHGDIVIDDKNGYRIISGDDIVPYLANELKADLILYATDVDGVLIDNKPIKRIDKNNIYKILNYLSGSNSIDVTGGMKYKIDMIRKNKCRGFVFNGNKANNIYKALLGEVEGTEIDFSE
Km [3]: 490 µM
kcat [3]: 3 s⁻¹
Km [4]: 200 µM
kcat [4]: 3.4 s⁻¹

B3: short chain alcohol dehydrogenase-like protein from Hahella chejuensis, SEQ ID NO: 17 (Hahella chejuensis KCTC 2396) (protein)
chain: MNYFVTGGTGFIGRFLVPKLLKRGGTVYLLVREASLPKLDELRERWNASDEQVVGVVGDLAQPMLGVSEKDAAMLRGKVGHFFHLAAIYDMQASAESQEQANIEGTRNAVKLADSLKAACFHHVSSIAAAGLYRGIFREDMFEEAEKLDNPYLRTKHESEKVVREECQTPWRVYRPGMVVGHSKTGEIDKIDGPYYFFKLIQKLRSALPQWMPTVGLEGGRINIVPVDFVVDAMDHIAHAEGEDGKCFHLTDPDPYKVGEILNIFAEAGHAPKMAMRIDARMFGFIPPMIRQGIARLPPVQRMKNAVLNDLGIPDEVMSFINYPTRFDNRETERLLKGTAIAVPRLQDYSPAIWDYWERHLDPDLHKDRTLRGAVEGRVCVITGATSGIGLSAARKLAEAGAKVVIAARTLEKLQEVKKELEELGGEVYEYSVDLSDLEDCDRFVANVLKDLGHVDVLVNNAGRSIRRSIQHAFDRFHDFERTMQLNYFGSLRLIMGFAPSMLERRRGHIVNISSIGVLTNAPRFSAYVASKAALDAFSRCAAAEFSDKNVTFTTINMPLVRTPMISPTKIYDSVPTLTPEEAADLVAEAIIHRPKRIATRLGVFAQVLHSMAPKFSEIIMNTGFKMFPDSSAATGGKDGEKPKVSTEQVAFAAIMRGIHW
Km [5]: 5000 µM
kcat [5]: 0.05 s⁻¹
Km [6]: 1000 µM
kcat [6]: 6.0 s⁻¹

B4: 4-methyl-5-(2-hydroxyethyl)thiazole kinase (hydroxyethylthiazole kinase, EC 2.7.1.50) from Escherichia coli, SEQ ID NO:2 (Escherichia coli K-12) (protein)
chain: MQVDLLGSAQSAHALHLFHQHSPLVHCMTNDVVQTFTANTLLALGASPAMVIETEEASQFAAIASALLINVGTLTQPRAQAMRAAVEQAKSSQTPWTLDPVAVGALDYRRHFCHELLSFKPAAIRGNASEIMALAGIANGGRGVDTTDAAANAIPAAQTLARETGAIVVVTGEMDYVTDGHRIIGIHGGDPLMTKVVGTGCALSAVVAACCALPGDTLENVASACHWMKQAGERAVARSEGPGSFVPHFLDALWQLTQEVQA
Km [7]: 30000 µM
kcat [7]: 0.11 s⁻¹
Km [8]: 13600 µM
kcat [8]: 0.19 s⁻¹

B5: monoterpene synthase from Eucalyptus globulus, SEQ ID NO: 8 (Eucalyptus globulus) (protein)
chain: MALRLLFTPHLPVLSSRRANGRVRCSASTQISDPQEGRRSANYQPSVWTYNYLQSIVAGEGRQSRREVEQQKEKVQILEEEVRGALNDEKAETFTIFATVDDIQRLGLGDHFEEDISNALRRCVSKGAVFMSLQKSLHGTALGFRLLRQHGYEVSQDVFKIFLDESGSFVKTLGGDVQGVLSLYEASHLAFEEEDILHKARSFAIKHLENLNSDVDKDLQDQVKHELELPLHRRMPLLEARRSIEAYSRREYTNPQILELALTDFNVSQSTLQRDLQEMLGWWNNTGLAKRLSFARDRLIECFFWAVGIAHEPSLSICRKAVTKAFALILVLDDVYDVFGTLEELELFTEAVRRWDLNAVEDLPVYMKLCYLALYNSVNEMAYETLKEKGENVIPYLAKAWYDLCKAFLQEAKWSNSRIIPGVEEYLNNGWVSSSGSVMLIHAYFLASPSIRKEELESLEHYHDLLRLPSLIFRLTNDIASSSAELERGETTNSIRCFMQEKGISELEARECVKEEIDTAWKKMNKYMVDRSTFNQSFVRMTYNLARMAHCVYQDGDAIGSPDDLSWNRVHSLIIKPISPAA
Km [9]: 7000 µM
kcat [9]: 3e-05 s⁻¹
Km [10]: 6000 µM

B6: isopentenyl monophosphate kinase from Thermoplasma acidophilum, SEQ ID NO:4 (Thermoplasma acidophilum DSM 1728) (protein)
chain: MMILKIGGSVITDKSAYRTARTYAIRSIVKVLSGIEDLVCVVHGGGSFGHIKAMEFGLPGPKNPRSSIGYSIVHRDMENLDLMVIDAMIEMGMRPISVPISALRYDGRFDYTPLIRYIDAGFVPVSYGDVYIKDEHSYGIYSGDDIMADMAELLKPDVAVFLTDVDGIYSKDPKRNPDAVLLRDIDTNITFDRVQNDVTGGIGKKFESMVKMKSSVKNGVYLINGNHPERIGDIGKESFIGTVIR
Km [11]: 1000 µM
kcat [11]: 2.2 s⁻¹
Km [12]: 610 µM
kcat [12]: 1.8 s⁻¹
